Legend:
Centromere B [1] = biological target: T1, Centromere B (UniProt P07199); assay: AtheNA, Ab 25 ug/ml
T1 sequence (looked up): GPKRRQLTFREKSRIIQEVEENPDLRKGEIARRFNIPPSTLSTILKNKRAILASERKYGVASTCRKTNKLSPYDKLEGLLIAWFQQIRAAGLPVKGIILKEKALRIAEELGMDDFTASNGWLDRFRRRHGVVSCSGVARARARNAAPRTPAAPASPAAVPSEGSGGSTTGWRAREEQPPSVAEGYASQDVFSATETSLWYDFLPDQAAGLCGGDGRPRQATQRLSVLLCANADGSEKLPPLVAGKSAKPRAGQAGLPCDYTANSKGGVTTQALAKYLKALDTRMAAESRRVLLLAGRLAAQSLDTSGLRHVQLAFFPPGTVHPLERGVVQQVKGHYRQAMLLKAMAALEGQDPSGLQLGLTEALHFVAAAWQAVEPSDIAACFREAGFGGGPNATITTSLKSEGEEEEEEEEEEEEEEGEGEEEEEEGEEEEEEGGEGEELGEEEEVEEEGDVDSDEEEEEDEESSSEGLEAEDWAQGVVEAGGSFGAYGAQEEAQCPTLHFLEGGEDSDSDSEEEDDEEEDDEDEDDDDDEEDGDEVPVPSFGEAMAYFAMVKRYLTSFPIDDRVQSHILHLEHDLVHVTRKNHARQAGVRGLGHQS

Histones [2] = assay: AtheNA, Ab 25 ug/ml
Jo-1 [3] = biological target: T2, Jo-1 (UniProt P12081); assay: AtheNA, Ab 25 ug/ml
T2 sequence (looked up): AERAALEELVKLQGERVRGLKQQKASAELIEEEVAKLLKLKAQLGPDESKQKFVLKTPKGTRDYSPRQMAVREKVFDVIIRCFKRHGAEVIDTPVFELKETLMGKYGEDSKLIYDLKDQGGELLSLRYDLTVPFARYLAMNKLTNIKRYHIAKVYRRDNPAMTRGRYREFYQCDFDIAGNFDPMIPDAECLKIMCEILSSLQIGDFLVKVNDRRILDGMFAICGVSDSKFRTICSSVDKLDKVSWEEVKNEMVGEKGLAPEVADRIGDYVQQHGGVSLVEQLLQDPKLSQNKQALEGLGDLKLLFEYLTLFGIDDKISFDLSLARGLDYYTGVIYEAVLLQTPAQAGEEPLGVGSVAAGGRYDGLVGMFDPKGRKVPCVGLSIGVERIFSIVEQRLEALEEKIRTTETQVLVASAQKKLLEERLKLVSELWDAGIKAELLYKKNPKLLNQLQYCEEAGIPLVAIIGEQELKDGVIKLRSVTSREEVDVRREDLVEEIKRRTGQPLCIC

RNP (ribonucleoprotein) [4] = assay: AtheNA, Ab 25 ug/ml
SSA [5] = assay: AtheNA, Ab 25 ug/ml
SSB [6] = biological target: SSB (UniProt P05455); assay: AtheNA, Ab 25 ug/ml
SSB, sequence (P05455 whole entry): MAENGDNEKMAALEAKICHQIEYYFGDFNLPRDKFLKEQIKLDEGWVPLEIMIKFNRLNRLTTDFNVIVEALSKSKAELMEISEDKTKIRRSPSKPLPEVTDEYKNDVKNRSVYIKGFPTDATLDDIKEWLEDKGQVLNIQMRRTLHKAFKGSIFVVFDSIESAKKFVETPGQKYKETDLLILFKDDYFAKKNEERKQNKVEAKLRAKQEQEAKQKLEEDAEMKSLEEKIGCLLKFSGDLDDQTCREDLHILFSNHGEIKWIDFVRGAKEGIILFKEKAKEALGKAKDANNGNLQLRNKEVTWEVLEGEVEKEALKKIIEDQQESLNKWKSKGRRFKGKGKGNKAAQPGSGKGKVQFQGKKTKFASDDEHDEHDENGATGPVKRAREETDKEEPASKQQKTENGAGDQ

Scl-70 [7] = biological target: Scl-70 (UniProt P11387); assay: AtheNA, Ab 25 ug/ml
Scl-70, sequence (P11387 2-765 limits assumed): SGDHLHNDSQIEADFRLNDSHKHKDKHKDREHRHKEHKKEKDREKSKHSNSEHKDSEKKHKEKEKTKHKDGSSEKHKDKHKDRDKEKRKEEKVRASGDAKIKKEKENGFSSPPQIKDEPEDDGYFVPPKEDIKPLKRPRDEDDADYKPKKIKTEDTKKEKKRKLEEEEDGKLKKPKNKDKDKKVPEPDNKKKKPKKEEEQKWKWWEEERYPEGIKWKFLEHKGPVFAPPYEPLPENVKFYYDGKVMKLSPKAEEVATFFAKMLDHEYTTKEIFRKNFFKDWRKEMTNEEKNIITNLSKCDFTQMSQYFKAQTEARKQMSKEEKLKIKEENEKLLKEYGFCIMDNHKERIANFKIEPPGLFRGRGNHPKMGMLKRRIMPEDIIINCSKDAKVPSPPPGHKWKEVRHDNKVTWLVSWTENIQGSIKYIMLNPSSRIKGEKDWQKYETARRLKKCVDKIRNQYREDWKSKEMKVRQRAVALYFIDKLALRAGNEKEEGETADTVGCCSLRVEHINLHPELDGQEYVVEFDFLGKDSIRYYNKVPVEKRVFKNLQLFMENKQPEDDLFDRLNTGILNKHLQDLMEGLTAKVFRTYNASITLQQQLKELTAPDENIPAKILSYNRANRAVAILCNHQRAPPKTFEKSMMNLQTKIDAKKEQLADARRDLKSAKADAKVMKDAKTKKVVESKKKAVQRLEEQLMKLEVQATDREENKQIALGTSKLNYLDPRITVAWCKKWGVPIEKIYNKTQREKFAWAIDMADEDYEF

Sm (Smith antigen) [8] = assay: AtheNA, Ab 25 ug/ml
Jo-1 [9] = biological target: T2, Jo-1; assay: AtheNA, Ab 50 ug/ml
SSB [10] = biological target: SSB (UniProt P05455); assay: AtheNA, Ab 50 ug/ml
Centromere B [11] = biological target: T1, Centromere B; assay: AtheNA, Ab 25 ug/ml; remark: listed apart in the source
Histones [12] = assay: AtheNA, Ab 25 ug/ml; remark: listed apart in the source
Jo-1 [13] = biological target: T2, Jo-1; assay: AtheNA, Ab 25 ug/ml; remark: listed apart in the source
RNP (ribonucleoprotein) [14] = assay: AtheNA, Ab 25 ug/ml; remark: listed apart in the source
SSA [15] = assay: AtheNA, Ab 25 ug/ml; remark: listed apart in the source
SSB [16] = biological target: SSB (UniProt P05455); assay: AtheNA, Ab 25 ug/ml; remark: listed apart in the source
Scl-70 [17] = biological target: Scl-70 (UniProt P11387); assay: AtheNA, Ab 25 ug/ml; remark: listed apart in the source
Sm (Smith antigen) [18] = assay: AtheNA, Ab 25 ug/ml; remark: listed apart in the source
Jo-1 [19] = biological target: T2, Jo-1; assay: AtheNA, Ab 50 ug/ml; remark: listed apart in the source
SSB [20] = biological target: SSB (UniProt P05455); assay: AtheNA, Ab 50 ug/ml; remark: listed apart in the source
Centromere B [21] = biological target: T1, Centromere B; assay: AtheNA, Ab 12.5 ug/ml
Histones [22] = assay: AtheNA, Ab 12.5 ug/ml
Jo-1 [23] = biological target: T2, Jo-1; assay: AtheNA, Ab 12.5 ug/ml
RNP (ribonucleoprotein) [24] = assay: AtheNA, Ab 12.5 ug/ml
SSA [25] = assay: AtheNA, Ab 12.5 ug/ml
SSB [26] = biological target: SSB (UniProt P05455); assay: AtheNA, Ab 12.5 ug/ml
Scl-70 [27] = biological target: Scl-70 (UniProt P11387); assay: AtheNA, Ab 12.5 ug/ml
Sm (Smith antigen) [28] = assay: AtheNA, Ab 12.5 ug/ml
Centromere B [29] = biological target: T1, Centromere B; assay: AtheNA, Ab 6.25 ug/ml
Histones [30] = assay: AtheNA, Ab 6.25 ug/ml
Jo-1 [31] = biological target: T2, Jo-1; assay: AtheNA, Ab 6.25 ug/ml
RNP (ribonucleoprotein) [32] = assay: AtheNA, Ab 6.25 ug/ml
SSA [33] = assay: AtheNA, Ab 6.25 ug/ml
SSB [34] = biological target: SSB (UniProt P05455); assay: AtheNA, Ab 6.25 ug/ml
Scl-70 [35] = biological target: Scl-70 (UniProt P11387); assay: AtheNA, Ab 6.25 ug/ml
Sm (Smith antigen) [36] = assay: AtheNA, Ab 6.25 ug/ml

4E10 IgG1 (antibody)
Athena reading (relative luminescence units) (Centromere B [1]): 3 | Athena reading (relative luminescence units) (Histones [2]): 10 | Athena reading (relative luminescence units) (Jo-1 [3]): 160 | Athena reading (relative luminescence units) (RNP (ribonucleoprotein) [4]): 3 | Athena reading (relative luminescence units) (SSA [5]): 33 | Athena reading (relative luminescence units) (SSB [6]): 227 | Athena reading (relative luminescence units) (Scl-70 [7]): 1 | Athena reading (relative luminescence units) (Sm (Smith antigen) [8]): 2 | Athena reading (relative luminescence units) (Jo-1 [9]): 190 | Athena reading (relative luminescence units) (SSB [10]): 263 | Athena reading (relative luminescence units) (Centromere B [11]): 9 | Athena reading (relative luminescence units) (Histones [12]): 24 | Athena reading (relative luminescence units) (Jo-1 [13]): 206 | Athena reading (relative luminescence units) (RNP (ribonucleoprotein) [14]): 20 | Athena reading (relative luminescence units) (SSA [15]): 81 | Athena reading (relative luminescence units) (SSB [16]): 189 | Athena reading (relative luminescence units) (Scl-70 [17]): 4 | Athena reading (relative luminescence units) (Sm (Smith antigen) [18]): 46 | Athena reading (relative luminescence units) (Jo-1 [19]): 227 | Athena reading (relative luminescence units) (SSB [20]): 207 | Athena reading (relative luminescence units) (Centromere B [21]): 1 | Athena reading (relative luminescence units) (Histones [22]): 7 | Athena reading (relative luminescence units) (Jo-1 [23]): 131 | Athena reading (relative luminescence units) (RNP (ribonucleoprotein) [24]): 3 | Athena reading (relative luminescence units) (SSA [25]): 21 | Athena reading (relative luminescence units) (SSB [26]): 199 | Athena reading (relative luminescence units) (Scl-70 [27]): 0 | Athena reading (relative luminescence units) (Sm (Smith antigen) [28]): 3 | Athena reading (relative luminescence units) (Centromere B [29]): 2 | Athena reading (relative luminescence units) (Histones [30]): 6 | Athena reading (relative luminescence units) (Jo-1 [31]): 113 | Athena reading (relative luminescence units) (RNP (ribonucleoprotein) [32]): 3 | Athena reading (relative luminescence units) (SSA [33]): 17 | Athena reading (relative luminescence units) (SSB [34]): 178 | Athena reading (relative luminescence units) (Scl-70 [35]): 1 | Athena reading (relative luminescence units) (Sm (Smith antigen) [36]): 3
